One molecule from US20020143164A1, “Ras activator nucleic acid molecules, polypeptides and methods of use” (priority 1999, published 2002) can be followed below.

For one assay, the system named is Ras. Kind of assay: Ras activation assay in living cells, GRF4 and deletion mutants expressed in HEK-293T cells. As to conditions: HEK-293T cells treated with 8-Br-cAMP. The assay is classed as cell-based, human. The method, then: HEK-293T cells were transfected with vector alone, GRF4 (WT), GRF4 lacking its cNMP-BD (ΔcNMP-BD) or its CDC25 domain (ΔCDC25), and then treated (or not) with 8-Br-cAMP. Cell lysates were then incubated with GST-Raf1-RBD to precipitate active Ras, and immunobloited with anti Ras antibodies as above (upper panel). Lower panels are controls for total endogenous Ras and transfected GRF4 or its mutants.
Flag, HA or myc tags was added to the N-terminus of full length GRF4 using PCR, and subcloned into the mammalian expression vector pCMV5 (Invitrogen). Mutants GRF4 with deletion of the CDC25 domain (residue 711-1007, GRF4DCDC25 or DCDC25 for short), the cNMP-BD (residue 134-254, DcNMP-BD), the PLPF motif in the PDZ domain (residue 396-399, -PLPF), or bearing mutations in the PDZ-binding motif (SAV to AAA), were generated using PCR. The GST-GRF4-cNMP-BD (residue 101-303) and GST-Carboxy-terminus (residue 1348-1499) were PCR-generated and cloned into pGEX-2T ( Pharmacia). The latter construct was used to generate a fusion protein (GST-GRF4C terminus) which was used to immunize rabbits for the generation of polyclonal anti GRF4 antibodies.
HEK-293T cells were transfected as above, serum starved overnight and then subjected to various treatments, as described in the text. […] GTP in the lysates was determined using activation specific probes as described. Briefly, to determined the levels of active Ras (Ras-GTP) in cell, sepharose-bound GST fusion protein of the Ras-binding domain (RBD) of Raf-1 (GST-Raf1-RBD; Upstate Biotechnology Inc.) was used to precipitate Ras-GTP from cell lysates, and the amount of Ras-GTP determined by immunoblotting with anti Ras antibodies (Quality Biotech). Similarly, to determine the level of Rap1-GTP in cell lysates, sepharose-bound GST fusion proteins of the Rap1-binding domain of RaIGDS (GST-RaIGDS-RBD) were used to precipitate Rap1-GTP, which was then detected on a Western blot using anti-Rap1 antibodies (Transduction Lab).

The target of a further assay is T1, GRF4 (Homo sapiens, UniProt Q9Y4G8, DEL134-254).
T1 construct: Flag, HA or myc tags was added to the N-terminus of full length GRF4 using PCR; expressed in transfected cells; host or cells: HEK-293T
T1 sequence (Q9Y4G8 with tags, fused parts or gaps DEL134-254): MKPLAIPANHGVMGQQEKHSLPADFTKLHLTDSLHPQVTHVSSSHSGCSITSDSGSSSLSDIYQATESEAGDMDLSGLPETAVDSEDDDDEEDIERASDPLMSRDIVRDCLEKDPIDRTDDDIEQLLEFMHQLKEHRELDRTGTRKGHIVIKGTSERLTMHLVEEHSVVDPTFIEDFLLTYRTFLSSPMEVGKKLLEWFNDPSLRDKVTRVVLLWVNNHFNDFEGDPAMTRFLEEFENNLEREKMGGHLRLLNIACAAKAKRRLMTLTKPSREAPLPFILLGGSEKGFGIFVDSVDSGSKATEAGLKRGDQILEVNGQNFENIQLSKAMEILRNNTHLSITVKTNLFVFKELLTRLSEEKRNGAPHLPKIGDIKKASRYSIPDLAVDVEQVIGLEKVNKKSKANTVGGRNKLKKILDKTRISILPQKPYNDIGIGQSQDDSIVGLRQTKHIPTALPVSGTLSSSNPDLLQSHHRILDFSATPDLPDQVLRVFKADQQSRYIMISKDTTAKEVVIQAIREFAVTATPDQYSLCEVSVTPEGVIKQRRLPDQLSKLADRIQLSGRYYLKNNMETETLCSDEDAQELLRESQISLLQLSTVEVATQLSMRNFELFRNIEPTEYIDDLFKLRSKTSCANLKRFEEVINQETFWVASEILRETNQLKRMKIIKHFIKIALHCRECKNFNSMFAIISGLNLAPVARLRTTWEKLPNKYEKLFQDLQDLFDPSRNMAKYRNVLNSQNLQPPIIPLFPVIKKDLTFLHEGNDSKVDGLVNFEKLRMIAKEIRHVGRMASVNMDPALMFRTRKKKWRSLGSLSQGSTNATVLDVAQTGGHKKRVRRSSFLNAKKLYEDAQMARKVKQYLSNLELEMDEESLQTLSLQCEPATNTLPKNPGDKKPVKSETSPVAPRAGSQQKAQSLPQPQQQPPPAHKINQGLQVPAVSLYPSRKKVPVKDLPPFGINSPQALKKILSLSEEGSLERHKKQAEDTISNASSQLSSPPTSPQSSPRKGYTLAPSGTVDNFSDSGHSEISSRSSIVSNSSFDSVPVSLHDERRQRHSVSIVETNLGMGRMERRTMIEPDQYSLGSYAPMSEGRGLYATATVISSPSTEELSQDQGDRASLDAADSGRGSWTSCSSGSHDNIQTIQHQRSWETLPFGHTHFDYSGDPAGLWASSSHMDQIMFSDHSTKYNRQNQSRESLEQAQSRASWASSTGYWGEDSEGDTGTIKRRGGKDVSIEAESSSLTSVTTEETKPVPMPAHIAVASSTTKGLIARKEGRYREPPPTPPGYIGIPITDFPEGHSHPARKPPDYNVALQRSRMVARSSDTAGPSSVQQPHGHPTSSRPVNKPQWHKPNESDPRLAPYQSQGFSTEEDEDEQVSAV
The assay is described as follows: Activation of Ras and MAPK by cNMP analogues in GRF4-transfected HEK-293T cells. The assay is classed as cell-based. The settings on record: HEK-293T cells. As to the method:
The small GTPase Ras controls the MAPK pathway and exerts its effects on cellular processes primarily through this pathway. MAPK is a downstream kinase of Ras and thus, Ras activation leads to MAPK activation (FIG. 6A). Therefore, we show the GRF4 effects on MAPK activation using assays in which levels of active MAPK in cells is determined using antibodies recognizing phosphorylated (active) MAPK.

B1: ΔcNMP-BD: Mutant GRF4 with deletion of the cNMP-BD (residue 134-254) (protein)
chain: T1 sequence (Q9Y4G8 with tags, fused parts or gaps DEL134-254)
For the molecule B1, the “8-Br-cAMP-mediated activation of Ras via the construct, compared with wt-GRF4” value in the assay with Ras was “almost abolished”. Further, in the assay with GRF4, the “Activation of Ras and MAPK by the expressed mutant” value is “constitutively”.
